Residue numbers refer to the chain shown, from its start. Names may count otherwise.

The labels stand for the following.
B1: C5A (XPA23) VH S54F (antibody, V domains shown)
VH: EVQLLESGGGLVQPGGSLRLSCAASGFTFSKYFMFWVRQAPGKGLEWVSVISPFGGMTRYADSVKGRFTISRDNSKNTLYLQMNSLRAEDTAVYYCARVGYGGNSDYWGQGTLVTVSS
VL: DIQMTQSPSSVSASVGDRLTIICRASQDINRWLAWYQQTPGNAPKLLIHSATSLQSGVPSRFSGSGSGTDFTLTINSLQPEDFATYYCQQADSFPLTFGGGTKVEIK
B2: C5A (XPA23) VH T58F (antibody, V domains shown)
VH: B1 VH with F54S, T58F
VL: B1 VL
B3: C5A (XPA23) VH M57I (antibody, V domains shown)
VH: B1 VH with F54S, M57I
VL: B1 VL
B4: C5A (XPA23) VH M57F (antibody, V domains shown)
VH: B1 VH with F54S, M57F
VL: B1 VL
B5: C5A (XPA23) VH R59P (antibody, V domains shown)
VH: B1 VH with F54S, R59P
VL: B1 VL
B6: C5A (XPA23) VH M57L (antibody, V domains shown)
VH: B1 VH with F54S, M57L
VL: B1 VL
B7: C5A (XPA23) VH T58G (antibody, V domains shown)
VH: B1 VH with F54S, T58G
VL: B1 VL
B8: C5A (XPA23) VH G56P (antibody, V domains shown)
VH: B1 VH with F54S, G56P
VL: B1 VL
B9: C5A (XPA23) VH Y101A (antibody, V domains shown)
VH: B1 VH with F54S, Y101A
VL: B1 VL
B10: C5A (XPA23) VH S54P (antibody, V domains shown)
VH: B1 VH with F54P
VL: B1 VL
B11: C5A (XPA23) VH G55I (antibody, V domains shown)
VH: B1 VH with F54S, G55I
VL: B1 VL
B12: C5A (XPA23) VH V99A (antibody, V domains shown)
VH: B1 VH with F54S, V99A
VL: B1 VL
B13: C5A (XPA23) VH T58I (antibody, V domains shown)
VH: B1 VH with F54S, T58I
VL: B1 VL
B14: C5A (XPA23) VH G100W (antibody, V domains shown)
VH: B1 VH with F54S, G100W
VL: B1 VL
B15: C5A (XPA23) VH S54W (antibody, V domains shown)
VH: B1 VH with F54W
VL: B1 VL
B16: C5A (XPA23) VH Y101I (antibody, V domains shown)
VH: B1 VH with F54S, Y101I
VL: B1 VL
B17: C5A (XPA23) VH T58A (antibody, V domains shown)
VH: B1 VH with F54S, T58A
VL: B1 VL
B18: C5A (XPA23) VH R59G (antibody, V domains shown)
VH: B1 VH with F54S, R59G
VL: B1 VL
B19: C5A (XPA23) VH G56F (antibody, V domains shown)
VH: B1 VH with F54S, G56F
VL: B1 VL
B20: C5A (XPA23) VH T58V (antibody, V domains shown)
VH: B1 VH with F54S, T58V
VL: B1 VL
B21: C5A (XPA23) VH Y101V (antibody, V domains shown)
VH: B1 VH with F54S, Y101V
VL: B1 VL
B22: C5A (XPA23) VH R59L (antibody, V domains shown)
VH: B1 VH with F54S, R59L
VL: B1 VL
B23: C5A (XPA23) VH R59F (antibody, V domains shown)
VH: B1 VH with F54S, R59F
VL: B1 VL
B24: C5A (XPA23) VH V99F (antibody, V domains shown)
VH: B1 VH with F54S, V99F
VL: B1 VL
B25: C5A (XPA23) VH T58L (antibody, V domains shown)
VH: B1 VH with F54S, T58L
VL: B1 VL
B26: C5A (XPA23) VH G55L (antibody, V domains shown)
VH: B1 VH with F54S, G55L
VL: B1 VL
B27: C5A (XPA23) VH T58W (antibody, V domains shown)
VH: B1 VH with F54S, T58W
VL: B1 VL
B28: C5A (XPA23) VH R59W (antibody, V domains shown)
VH: B1 VH with F54S, R59W
VL: B1 VL
B29: C5A (XPA23) VH M57V (antibody, V domains shown)
VH: B1 VH with F54S, M57V
VL: B1 VL
B30: C5A (XPA23) VH M57A (antibody, V domains shown)
VH: B1 VH with F54S, M57A
VL: B1 VL
B31: C5A (XPA23) VH G56L (antibody, V domains shown)
VH: B1 VH with F54S, G56L
VL: B1 VL
B32: C5A (XPA23) VH G56I (antibody, V domains shown)
VH: B1 VH with F54S, G56I
VL: B1 VL
B33: C5A (XPA23) VH G56W (antibody, V domains shown)
VH: B1 VH with F54S, G56W
VL: B1 VL
B34: C5A (XPA23) VH G56A (antibody, V domains shown)
VH: B1 VH with F54S, G56A
VL: B1 VL
B35: C5A (XPA23) VH T58P (antibody, V domains shown)
VH: B1 VH with F54S, T58P
VL: B1 VL

The target of the first test is binding partner of C5A (XPA23). The test can be described thus: Biacore.
For the molecule B1, the fold affinity vs original stood at 0.87 fold.

On to B2, for which the fold affinity vs original was 1.04 fold.

On to B3, for which the fold difference in affinity vs original was 0.03 fold.

Turning to B4, the fold affinity vs original was 1.03 fold.

For the molecule B5, the fold difference in affinity vs original stood at 0.07 fold.

B6: the fold difference in affinity vs original amounted to 0.06 fold.

As to B7, the fold difference in affinity vs original was determined as 0.95 fold.

As for B8, the fold difference in affinity vs original is 0.85 fold.

Take B9: the fold difference in affinity vs original was 0.04 fold.

Regarding B10, the fold difference in affinity vs original is 0.06 fold.

As to B11, the fold difference in affinity vs original worked out at 0.86 fold.

For the molecule B12, the fold difference in affinity vs original is 0.03 fold.

For B13, the fold difference in affinity vs original amounted to 0.95 fold.

As for B14, the fold affinity vs original was 0.05 fold.

As to B15, the fold affinity vs original was 1.07 fold.

Turning to B16, the fold difference in affinity vs original worked out at 0.83 fold.

B17: the fold difference in affinity vs original stood at 0.14 fold.

With B18, the fold difference in affinity vs original came out at 1.04 fold.

In the case of B19, the fold affinity vs original was 1.41 fold.

B20: the fold difference in affinity vs original came to 0.99 fold.

In the case of B21, the fold difference in affinity vs original turned out to be 0.09 fold.

In the case of B22, the fold difference in affinity vs original amounted to 0.08 fold.

With B23, the fold affinity vs original was 0.92 fold.

Take B24: the fold affinity vs original was found to be 0.03 fold.

With B25, the fold difference in affinity vs original is 0.95 fold.

As for B26, the fold difference in affinity vs original worked out at 0.08 fold.

In the case of B27, the fold affinity vs original was 0.93 fold.

Consider B28, for which the fold affinity vs original was 0.09 fold.

Regarding B29, the fold difference in affinity vs original amounted to 0.03 fold.

With B30, the fold difference in affinity vs original was determined as 0.03 fold.

With B31, the fold difference in affinity vs original was found to be 1.41 fold.

With B32, the fold difference in affinity vs original turned out to be 1.71 fold.

Turning to B33, the fold affinity vs original came out at 1.51 fold.

As to B34, the fold difference in affinity vs original was 1.21 fold.

Regarding B35, the fold difference in affinity vs original came to 1.81 fold.

A further test has as its target binding partner (antigen) of C5A (XPA23). The test can be described thus: Biacore, K-off, fold vs original. For orientation: Surface plasmon resonance follows binding to a sensor surface in real time, without labels.
As to B1, the fold difference in affinity vs original was 0.87 fold.

Turning to B2, the fold difference in affinity vs original amounted to 1.04 fold.

On to B3, for which the fold difference in affinity vs original came to 0.03 fold.

For the molecule B4, the fold difference in affinity vs original came out at 1.03 fold.

With B5, the fold difference in affinity vs original came to 0.07 fold.

For B6, the fold difference in affinity vs original turned out to be 0.06 fold.

As to B7, the fold difference in affinity vs original was found to be 0.95 fold.

Take B8: the fold difference in affinity vs original stood at 0.85 fold.

In the case of B9, the fold difference in affinity vs original was 0.04 fold.

As for B10, the fold difference in affinity vs original was 0.06 fold.

With B11, the fold difference in affinity vs original was determined as 0.86 fold.

Turning to B12, the fold difference in affinity vs original is 0.03 fold.

Take B13: the fold difference in affinity vs original was 0.95 fold.

For the molecule B14, the fold difference in affinity vs original turned out to be 0.05 fold.

Consider B15, for which the fold difference in affinity vs original worked out at 1.07 fold.

Consider B16, for which the fold difference in affinity vs original came out at 0.83 fold.

Turning to B17, the fold difference in affinity vs original amounted to 0.14 fold.

B18: the fold difference in affinity vs original worked out at 1.04 fold.

Turning to B19, the fold difference in affinity vs original was 1.41 fold.

On to B20, for which the fold difference in affinity vs original was determined as 0.99 fold.

On to B21, for which the fold difference in affinity vs original amounted to 0.09 fold.

Turning to B22, the fold difference in affinity vs original was determined as 0.08 fold.

Regarding B23, the fold difference in affinity vs original is 0.92 fold.

For B24, the fold difference in affinity vs original turned out to be 0.03 fold.

On to B25, for which the fold difference in affinity vs original was found to be 0.95 fold.

Regarding B26, the fold difference in affinity vs original is 0.08 fold.

As for B27, the fold difference in affinity vs original turned out to be 0.93 fold.

B28: the fold difference in affinity vs original stood at 0.09 fold.

Regarding B29, the fold difference in affinity vs original turned out to be 0.03 fold.

Turning to B30, the fold difference in affinity vs original came out at 0.03 fold.

Consider B31, for which the fold difference in affinity vs original was 1.41 fold.

On to B32, for which the fold difference in affinity vs original is 1.71 fold.

Regarding B33, the fold difference in affinity vs original came out at 1.51 fold.

As to B34, the fold difference in affinity vs original came out at 1.21 fold.

As to B35, the fold difference in affinity vs original is 1.81 fold.

The values are drawn from patent US20110118447A1.
